One molecule from patent publication US10450368 (DUKE UNIVERSITY, dated 2019) can be followed below.

This test deals with T1, Jo-1 (UniProt P12081 1-509).
T1 sequence: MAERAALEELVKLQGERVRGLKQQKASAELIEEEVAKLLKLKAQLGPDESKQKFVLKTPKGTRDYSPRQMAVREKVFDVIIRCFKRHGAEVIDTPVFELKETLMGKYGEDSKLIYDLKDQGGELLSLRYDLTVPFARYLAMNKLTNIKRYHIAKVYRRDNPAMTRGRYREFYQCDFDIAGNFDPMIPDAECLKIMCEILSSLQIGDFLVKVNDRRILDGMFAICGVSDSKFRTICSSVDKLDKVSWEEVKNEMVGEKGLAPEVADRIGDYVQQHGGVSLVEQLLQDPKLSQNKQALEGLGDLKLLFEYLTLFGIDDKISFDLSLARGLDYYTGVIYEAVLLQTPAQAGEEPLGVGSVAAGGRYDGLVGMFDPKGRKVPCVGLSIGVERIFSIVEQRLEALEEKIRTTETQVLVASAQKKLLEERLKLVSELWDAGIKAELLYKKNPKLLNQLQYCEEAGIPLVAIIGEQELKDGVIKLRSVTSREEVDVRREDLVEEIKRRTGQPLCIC
Put plainly: AtheNA, Ab 50 ug/ml.

B1: CH557 (antibody, V domains shown)
VH: QVRLAQYGGGVKRLGATMTLSCVASGYTFNDYYIHWVRQAPGQGFELLGYIDPANGRPDYAGALRERLSFYRDKSMETLYMDLRSLRYDDTAMYYCVRNVGTAGSLLHYDHWGSGSPVIVSS
VL: EIVLTQSPATLSASPGERVTLTCRASRSVRNNVAWYQHKGGQSPRLLIYDASTRAAGVPARFSGSASGTEFTLAISNLESEDFTVYFCLQYNNWWTFGQGTRVDIK
notes: also called CH235.12; CH557_4A/293i
Consider B1, for which the AtheNA signal is 10 relative luminescence units.
